Measured values published in patent US20250136695A1 (PERSONGEN BIOTHERAPEUTICS SUZHOU, published 2025).

Columns and labels:
[1] = molecular target: T1, PDL1 expressed on recombinant CHO cells (CHO-K1/PDL1; aAPC CHO-PDL1) (UniProt Q9NZQ7 19-290, limits assumed); assay: cell-based or functional assay
[2] = molecular target: T1, PDL1 expressed on recombinant CHO cells …; assay: cell-based or functional assay; remark: listed apart in the source
[3] = molecular target: T1, PDL1 expressed on recombinant CHO cells …; assay: cell-based or functional assay; remark: listed apart in the source
PDL1-His = molecular target: T2, PDL1-His (UniProt Q9NZQ7 19-238, limits assumed); assay: BLI (OCTET R2), Fc-tagged antibody on protein A probes, PDL1-His as mobile phase
T2 construct: not shown: His tag
T2 sequence (Q9NZQ7 19-238 limits assumed): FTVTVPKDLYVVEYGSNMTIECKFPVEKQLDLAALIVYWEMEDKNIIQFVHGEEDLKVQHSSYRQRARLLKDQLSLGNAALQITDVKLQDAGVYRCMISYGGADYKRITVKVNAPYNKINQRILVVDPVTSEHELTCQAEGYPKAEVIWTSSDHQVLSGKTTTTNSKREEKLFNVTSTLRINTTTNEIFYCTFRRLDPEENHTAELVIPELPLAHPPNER

T1 sequence (Q9NZQ7 19-290 limits assumed): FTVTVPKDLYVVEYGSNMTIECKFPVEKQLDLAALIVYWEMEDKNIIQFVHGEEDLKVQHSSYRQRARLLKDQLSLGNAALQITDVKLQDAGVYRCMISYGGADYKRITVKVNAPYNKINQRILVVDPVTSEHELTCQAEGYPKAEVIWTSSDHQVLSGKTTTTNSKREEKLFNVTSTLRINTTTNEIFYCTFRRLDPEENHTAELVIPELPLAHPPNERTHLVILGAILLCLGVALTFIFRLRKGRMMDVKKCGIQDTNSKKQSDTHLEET

B1: 17-A06 (VHH fused to human IgG1 Fc) (Fc fusion, not shown: a dimerising Fc or GST)
chain: MAQVKLEESGGGLVQAGGSLRLSCVASGRSFITYAVGWFRQAPGKEREFVASINWSGAMTYYTDSVNGRFAISRDNAKNTVYLQMNNLKLEDTAVYYCASTISAVTPTNGYQNWGQGTQVTVSS
EC50 of PD-1/PDL1 blocking against Nivolumab ([…] µg/mL), same reporter assay [1]: > 0.322 µg/mL
EC50 of the PD1/PDL1 Block Assay (luciferase fold of induction, Jurkat-PD1-NFAT-Luc + aAPC CHO-PDL1); printed as 03-17-A06; the table gives no unit, the axis is in µg/mL [2]: 1.96 µg/mL

B2: 23-G3 (VHH fused to human IgG1 Fc) (Fc fusion, not shown: a dimerising Fc or GST)
chain: MAAVQLVESGGGLVQAGGSLRLSCVASGRSFITYAVGWFRQAPGKEREFVASVNWSGAMTYYADAVNGRFTISRDNAKNTVYLQMNNLKLEDTAVYYCAATISAVTPTNGYQNWGQGTQVTVSS
EC50 of PD-1/PDL1 blocking against Nivolumab ([…] µg/mL), same reporter assay [1]: > 0.322 µg/mL
EC50 of the PD1/PDL1 Block Assay (luciferase fold of induction, Jurkat-PD1-NFAT-Luc + aAPC CHO-PDL1); printed as 03-23-G3; the table gives no unit, the axis is in µg/mL [2]: 3.45 µg/mL

B3: 29-H9 (VHH fused to human IgG1 Fc) (Fc fusion, not shown: a dimerising Fc or GST)
chain: RLQLVESGGGLVQAGGSLRLSCAASGFTFSTYAMSWYRGVPEKERELVAFISSDGGGTTYRDSVKGRFTISRDNGKNTVYLQMNSLKPEDTGVYYCARGLAQIWGQGTQVTVSS
EC50 of PD-1/PDL1 blocking against Nivolumab ([…] µg/mL), same reporter assay [1]: > 0.322 µg/mL
EC50 of the PD1/PDL1 Block Assay (luciferase fold of induction, Jurkat-PD1-NFAT-Luc + aAPC CHO-PDL1); printed as 03-29-H9; the table gives no unit, the axis is in µg/mL [2]: 1.44 µg/mL

B4: 17-A06-G4S-29-H9 (Fc fusion)
chain: MAQVKLEESGGGLVQAGGSLRLSCVASGRSFITYAVGWFRQAPGKEREFVASINWSGAMTYYTDSVNGRFAISRDNAKNTVYLQMNNLKLEDTAVYYCASTISAVTPTNGYQNWGQGTQVTVSSGGGGSRLQLVESGGGLVQAGGSLRLSCAASGFTFSTYAMSWYRGVPEKERELVAFISSDGGGTTYRDSVKGRFTISRDNGKNTVYLQMNSLKPEDTGVYYCARGLAQIWGQGTQVTVSS
notes: also called bivalent antibody 17-A06-G4S-29-H9; bivalent PDL1 antibody; not shown: Fc tag ('Fc-tagged')
EC50 of the PD1/PDL1 Block Assay (luciferase fold of induction, Jurkat-PD-1-NFAT-Luc + aAPC CHO-PDL1) [3]: 1.35 µg/mL
Kd (PDL1-His): 2.73 nM
koff (PDL1-His): 0.00048 s⁻¹
kon (PDL1-His): 176000 M⁻¹ s⁻¹

B5: 23-G3-G4S-29-H9 (Fc fusion)
chain: MAAVQLVESGGGLVQAGGSLRLSCVASGRSFITYAVGWFRQAPGKEREFVASVNWSGAMTYYADAVNGRFTISRDNAKNTVYLQMNNLKLEDTAVYYCAATISAVTPTNGYQNWGQGTQVTVSSGGGGSRLQLVESGGGLVQAGGSLRLSCAASGFTFSTYAMSWYRGVPEKERELVAFISSDGGGTTYRDSVKGRFTISRDNGKNTVYLQMNSLKPEDTGVYYCARGLAQIWGQGTQVTVSS
notes: also called bivalent antibody 23-G3-G4S-29-H9; bivalent PDL1 antibody; not shown: Fc tag ('Fc-tagged')
Kd (PDL1-His): 1.92 nM
koff (PDL1-His): 0.000455 s⁻¹
kon (PDL1-His): 238000 M⁻¹ s⁻¹

B6: 17-A06-G4S-23-G3 (Fc fusion)
chain: MAQVKLEESGGGLVQAGGSLRLSCVASGRSFITYAVGWFRQAPGKEREFVASINWSGAMTYYTDSVNGRFAISRDNAKNTVYLQMNNLKLEDTAVYYCASTISAVTPTNGYQNWGQGTQVTVSSGGGGSMAAVQLVESGGGLVQAGGSLRLSCVASGRSFITYAVGWFRQAPGKEREFVASVNWSGAMTYYADAVNGRFTISRDNAKNTVYLQMNNLKLEDTAVYYCAATISAVTPTNGYQNWGQGTQVTVSS
notes: also called bivalent antibody 17-A06-G4S-23-G3; bivalent PDL1 antibody; not shown: Fc tag ('Fc-tagged')
EC50 of the PD1/PDL1 Block Assay (luciferase fold of induction, Jurkat-PD-1-NFAT-Luc + aAPC CHO-PDL1) [3]: 2.06 µg/mL
Kd (PDL1-His): 4.2 nM
koff (PDL1-His): 0.000649 s⁻¹
kon (PDL1-His): 155000 M⁻¹ s⁻¹
